Our source for the Kd values is paper PMC3958483 (PLoS ONE, 2014).

Common to all, as to conditions: both partners purified
Experiment [1] addresses T1, EAT-2 (recombinant full-length human EAT-2) (human, UniProt O14796 1-132).
T1 construct: EAT-2, human, full length; source: E. coli BL21(DE3)pLysS, purified (Co2+ or Ni2+ column, size exclusion chromatography)
T1 sequence (looked up): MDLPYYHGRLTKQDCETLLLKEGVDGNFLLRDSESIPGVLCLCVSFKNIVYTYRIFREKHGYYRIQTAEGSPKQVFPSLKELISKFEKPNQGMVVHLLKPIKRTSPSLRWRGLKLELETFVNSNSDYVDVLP
The experiment in a line: SPR; biotinylated phosphopeptides immobilised on streptavidin chip (about 25 RU single motifs); soluble recombinant protein injected in two-fold dilutions; 37°C; HBS-EP (10 mM HEPES pH 7.4, 150 mM NaCl, 3.4 mM EDTA, 0.005% P20); equilibrium binding, one-site model; proteins purified on the same day as SPR (Tables 1 and 6). (SPR reads the build-up and loss of mass on a sensor chip optically.)

For experiment [2], the target named is T2, PLCγ2 SH2-SH2-SH3 (tandem SH2 domains plus the SH3 domain of PLCγ2) (human, UniProt P16885 519-838).
T2 construct: PLCγ2, human, tandem SH2 domains plus SH3 domain, aa 519–838; Printed MW = 42415 of the recombinant protein; also called recombinant PLCγ2 SH2 domains; source: E. coli BL21(DE3)pLysS, purified (Co2+ or Ni2+ column, size exclusion chromatography, same day as SPR)
T2 sequence: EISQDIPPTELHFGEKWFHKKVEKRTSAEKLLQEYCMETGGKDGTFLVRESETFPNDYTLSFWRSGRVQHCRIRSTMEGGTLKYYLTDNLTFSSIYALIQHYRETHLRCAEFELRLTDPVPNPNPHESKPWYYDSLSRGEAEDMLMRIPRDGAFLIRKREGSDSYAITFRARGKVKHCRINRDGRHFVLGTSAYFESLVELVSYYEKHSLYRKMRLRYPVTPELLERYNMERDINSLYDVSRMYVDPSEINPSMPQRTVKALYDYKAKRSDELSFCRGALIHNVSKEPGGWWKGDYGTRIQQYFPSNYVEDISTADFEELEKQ
The experiment is described as above.

Experiment [3] deals with T3, PLCγ1 SH2-SH2-SH3 (tandem SH2 domains plus the SH3 domain of PLCγ1) (human, UniProt P19174 536-863).
T3 construct: PLCγ1, human, tandem SH2 domains plus SH3 domain, aa 536–863; Printed MW = 42531 of the recombinant protein; also called recombinant PLCγ1; source: E. coli BL21(DE3)pLysS, purified (Co2+ or Ni2+ column, size exclusion chromatography, same day as SPR)
T3 sequence: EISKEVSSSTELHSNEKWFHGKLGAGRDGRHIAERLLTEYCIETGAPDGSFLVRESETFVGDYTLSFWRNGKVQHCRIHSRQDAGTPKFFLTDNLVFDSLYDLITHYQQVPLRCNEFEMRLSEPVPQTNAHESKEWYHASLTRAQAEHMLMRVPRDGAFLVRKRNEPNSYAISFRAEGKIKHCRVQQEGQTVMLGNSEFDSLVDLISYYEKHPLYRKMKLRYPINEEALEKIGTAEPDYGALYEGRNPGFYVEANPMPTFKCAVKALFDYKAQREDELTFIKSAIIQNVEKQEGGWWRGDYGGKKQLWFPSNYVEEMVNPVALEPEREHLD
Described as above.

Experiment [4] has as its target T4, SHP-2 N-terminal + C-terminal (N+C) SH2 domains (human, UniProt Q06124 2-219).
T4 construct: SHP-2, human, N-terminal + C-terminal SH2 domains, aa 2–219; also called SHP-2 (SH2-SH2); SHP2 N+C SH2; source: E. coli BL21(DE3)pLysS, purified (Oxford Protein Production Facility / in house; size exclusion chromatography)
T4 sequence (looked up): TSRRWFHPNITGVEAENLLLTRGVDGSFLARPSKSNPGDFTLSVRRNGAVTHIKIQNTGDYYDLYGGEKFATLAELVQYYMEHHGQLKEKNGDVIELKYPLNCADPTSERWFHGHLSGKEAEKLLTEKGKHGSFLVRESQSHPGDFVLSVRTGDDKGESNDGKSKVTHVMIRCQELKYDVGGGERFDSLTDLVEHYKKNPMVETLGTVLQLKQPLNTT
The experiment in a line: SPR; biotinylated phosphopeptides immobilised on streptavidin chip (about 25 RU single, 50 RU tandem motifs); soluble recombinant protein injected; 37°C; HBS-EP; equilibrium binding (Table 4; same-day purification not given).

Experiment [5] deals with T1, EAT-2 (recombinant full-length human …). Described as above.
Experiment [6] addresses T5, SHIP SH2 (SH2 domain from human SHIP-1) (human, UniProt Q92835 5-101).
T5 construct: SHIP-1, human, single SH2 domain; also called hSHIP SH2; SHIP-1 SH2 domain; source: E. coli BL21(DE3)pLysS, purified (Co2+ or Ni2+ column, size exclusion chromatography)
T5 sequence (looked up): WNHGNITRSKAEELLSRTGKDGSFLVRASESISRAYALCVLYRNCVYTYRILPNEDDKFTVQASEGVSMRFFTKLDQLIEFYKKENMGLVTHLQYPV
The experiment is described as above.

In experiment [7] the target is T4, SHP-2 N-terminal + C-terminal (N+C) SH2 …. The experiment in a line: SPR; biotinylated tandem phosphopeptides immobilised on streptavidin chip; SHP-2 N+C SH2 injected; 25°C; HBS-EP; equilibrium binding (Table 4).
The target in experiment [8] is T6, SAP (recombinant full-length human SAP) (human, UniProt O60880 1-128).
T6 construct: SAP, human, full length; also called SH2D1A; source: E. coli BL21(DE3)pLysS, purified (Co2+ or Ni2+ column, size exclusion chromatography)
T6 sequence (looked up): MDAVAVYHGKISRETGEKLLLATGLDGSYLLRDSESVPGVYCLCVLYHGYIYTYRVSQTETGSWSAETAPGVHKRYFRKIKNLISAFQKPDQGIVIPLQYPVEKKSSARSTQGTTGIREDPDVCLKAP
The experiment in a line: SPR; biotinylated phosphopeptides immobilised on streptavidin chip (about 25 RU single motifs); soluble recombinant protein injected in two-fold dilutions; 37°C; HBS-EP (10 mM HEPES pH 7.4, 150 mM NaCl, 3.4 mM EDTA, 0.005% P20); equilibrium binding, one-site model; proteins purified on the same day as SPR (Tables 1 and 6).

Non-standard residues stand in square brackets, D forms with d. No end group written: not given here. *: point of attachment. Biotin = O=C1N[C@H]2[C@H](CS[C@H]2CCCCC(=O)*)N1; pY = N[C@@H](Cc1ccc(OP(=O)(O)O)cc1)C(=O)O

B1: CD244 ITSM1 phosphopeptide (Biotin-EFLTIpYEDVKD) (peptide)
peptide: Biotin-EFLTI[pY]EDVKD
notes: CD244 (SLAMF4), human, cytoplasmic ITSM1; also called SLAMF4 ITSM1; source: synthetic peptide (Peptide Protein Research Ltd)
For the molecule B1, the Kd (commonly a measure of binding affinity in units of concentration) in experiment [1] worked out at 20 nM; in experiment [2] it was 210 nM; in experiment [3] it was 800 nM; in experiment [4], 29 µM; in experiment [5], 60 nM; in experiment [6] it was 11 µM.

B2: SIRPα ITIM1+ITIM2 tandem phosphopeptide (peptide)
peptide: Biotin-TNDIT[pY]ADLNLPKGKKPAPQAAEPNNHTE[pY]ASIQT
notes: SIRPα, human, cytoplasmic stretch with ITIM1 and ITIM2; source: synthetic peptide (Peptide Protein Research Ltd)
For B2, the Kd in experiment [7] is 0.5 µM; in experiment [4], 1 µM.

B3: CD244 ITSM1,ITSM2 (equimolar mixture of single ITSM on chip) (other)
chain 1: Biotin-EFLTI[pY]EDVKD
chain 2: Biotin-GGSTI[pY]SMIQS
modifications: also: equimolar mixture of two separate peptides
On to B3, for which the Kd in experiment [4] was 22 µM.

B4: LAT Y132 phosphopeptide (Biotin-HNPGpYLVVLPD) (peptide)
peptide: Biotin-HNPG[pY]LVVLPD
notes: LAT, human, stretch around Y132; also called LAT pY132; source: synthetic peptide (Peptide Protein Research Ltd)
As to B4, the equilibrium dissociation constant (Kd) in experiment [2] and in experiment [3] was 20 nM throughout.

B5: FCRγIIb (CD32) phosphopeptide (peptide)
chain: ENTITYSLLMH
modifications: also: phosphorylated, site not given here, biotinylated, site not given here
With B5, the Kd in experiment [6] was 0.47 µM.

B6: CD244 ITSM1+ITSM2 tandem phosphopeptide (peptide)
peptide: Biotin-EFLTI[pY]EDVKDLKTRRNHEQEQTFPGGGSTI[pY]SMIQS
notes: CD244 (SLAMF4), human, cytoplasmic stretch with ITSM1 and ITSM2; also called tandem ITSM peptide; source: synthetic peptide (Peptide Protein Research Ltd)
On to B6, for which the results for the Kd in experiment [7] and in experiment [4] were 1.4 µM and 2.2 µM, respectively.

B7: CD244 ITSM3+ITSM4 tandem phosphopeptide (peptide)
peptide: Biotin-PAYTL[pY]SLIQPSRKSGSRKRNHSPSFNSTI[pY]EVIGK
notes: CD244 (SLAMF4), human, cytoplasmic stretch with ITSM3 and ITSM4; source: synthetic peptide (Peptide Protein Research Ltd)
For the molecule B7, the equilibrium dissociation constant (Kd) in experiment [7] stood at 7.4 µM; in experiment [4], 10 µM.

B8: SIRPα ITIM3+ITIM4 tandem phosphopeptide (peptide)
chain: EDTLTYADLDMVHLNRTPKQPAPKPEPSFSEYASVQV
modifications: also: phosphorylated, sites not given here, biotinylated, site not given here
Take B8: in experiment [7], the equilibrium dissociation constant (Kd) worked out at 6.4 µM.

B9: CRACC ITSM2 phosphopeptide (Biotin-PANTVpYSTVEI) (peptide)
peptide: Biotin-PANTV[pY]STVEI
notes: CRACC (SLAMF7), human, cytoplasmic ITSM2; also called SLAMF7 ITSM2; source: synthetic peptide (Peptide Protein Research Ltd)
Turning to B9, the dissociation constant (Kd) in experiment [1] was determined as 3 nM; in experiment [8], 440 nM.

B10: EAT-2 Y127 phosphopeptide (Biotin-NSNSDpYVDVLP) (peptide)
peptide: Biotin-NSNSD[pY]VDVLP
notes: EAT-2, human, tail with the conserved tyrosine motif Y127; also called EAT-2 pY127; EAT-2 tail phosphopeptide; source: synthetic peptide (Peptide Protein Research Ltd)
Take B10: the Kd in experiment [2] amounted to 30 nM; in experiment [3], 10 nM.
